Assay results published in patent US20160009793A1 (BIOARCTIC NEUROSCIENCE, published 2016).
Changes are numbered by the printed parent chain. In names and notes the source's numbering stands.

B1: BAN2401 (antibody, V domains shown)
VH: EVQLVESGGGLVQPGGSLRLSCSASGFTFSSFGMHWVRQAPGKGLEWVAYISSGSSTIYYGDTVKGRFTISRDNAKNSLFLQMSSLRAEDTAVYYCAREGGYYYGRSYYTMDYWGQGTTVTVSS
VL: DVVMTQSPLSLPVTPGAPASISCRSSQSIVHSNGNTYLEWYLQKPGQSPKLLIYKVSNRFSGVPDRFSGSGSGTDFTLRISRVEAEDVGIYYCFQGSHVPPTFGPGTKLEIK
notes: also called humanized version of mAb158
B2: A17D/R79T (antibody, human IgG1, kappa, V domains shown)
VH: B1 VH
VL: DVVMTQSPLSLPVTPGDPASISCRSSQSIVHSNGNTYLEWYLQKPGQSPKLLIYKVSNRFSGVPDRFSGSGSGTDFTLTISRVEAEDVGIYYCFQGSHVPPTFGPGTKLEIKR
B3: A17D/R79T_DI 1 (antibody, human IgG1, kappa)
heavy: not shown
light: DVVMTQSPLSLPVTPGDPASVSCRSSQSIVHSNGNTYLEWYLQKPGQSPKLLIYKVSNRFSGVPDRFSGSGSGTDFTLTIQRVEAEDVGIYYCFQGSHVPPTFGPGTKLEIKRTVAAPSVFIFPPSDEQLKSGTASVVCLLNNFYPREAKVQWKVDNALQSGNSQESVTEQDSKDSTYSLSSTLTLSKADYEKHKVYACEVTHQGLSSPVTKSFNRGEC
notes: also called deimmunized variant 1 of A17D/R79T
B4: A17D/R79T_DI 2 (antibody, human IgG1, kappa)
heavy: not shown
light: B3 light with Q81S, E84D
notes: also called deimmunized variant 2 of A17D/R79T
B5: A17D/R79T/R82S (antibody, human IgG1, kappa, V domains shown)
VH: B1 VH
VL: B2 VL with R82S
B6: A17D/R79T_DI 6 (antibody, human IgG1, kappa)
heavy: not shown
light: B3 light with Q81S, E84D
notes: also called deimmunized variant 6 of A17D/R79T
B7: A17D/R79T_DI 8 (antibody, human IgG1, kappa)
heavy: not shown
light: B3 light with V13A, V21I, Q81S, E84D
notes: also called deimmunized variant 8 of A17D/R79T
B8: A17D/R79T_DI 4 (antibody, human IgG1, kappa)
heavy: not shown
light: B3 light with V13A, V21I, Q81S, E84D
notes: also called deimmunized variant 4 of A17D/R79T
B9: A17D (antibody, human IgG1, kappa, V domains shown)
VH: B1 VH
VL: B2 VL with T79R
B10: A17D/R79T_DI 3 (antibody, human IgG1, kappa)
heavy: not shown
light: B3 light with V13A, V21I
notes: also called deimmunized variant 3 of A17D/R79T
B11: A17D/R79T_DI 7 (antibody, human IgG1, kappa)
heavy: not shown
light: B3 light with V13A, V21I
notes: also called deimmunized variant 7 of A17D/R79T
B12: A17D/R79T_DI 5 (antibody, human IgG1, kappa)
heavy: not shown
light: B3 light
notes: also called deimmunized variant 5 of A17D/R79T
B13: A17D/R82S (antibody, human IgG1, kappa, V domains shown)
VH: B1 VH
VL: B2 VL with T79R, R82S

Target: T1, Aβ1-42 protofibrils (UniProt P05067 672-713)
T1 construct: domain: Aβ1-42; Aβ numbering is not APP numbering; also called Aβ protofibrils; Aβ-protofibrils
T1 sequence (P05067 672-713 limits assumed): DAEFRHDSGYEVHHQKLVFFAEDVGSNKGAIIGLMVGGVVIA
Test: inhibition ELISA: antibody pre-incubated in solution with Aβ protofibrils, then transferred to Aβ coated plates; BAN2401 is the reference
Protocol: (§1) The binding characteristics towards Aβ protofibrils and Aβ monomers of the antibodies of the invention compared to BAN2401 were analyzed using an inhibition ELISA in which antibodies were pre-incubated in solution with Aβ protofibrils or Aβ monomers and then transferred to Aβ coated ELISA plates, as described in Tucker et. al. J Alzheimers Dis. 2015; 43(2):575-88. doi: 10.3233/JAD-140741. PubMed PMID: 25096615, and references cited therein.

binding result	Binder
binds	B1

Target: T2, Aβ1-40 monomers (UniProt P05067 672-711)
T2 construct: domain: Aβ1-40; Aβ numbering is not APP numbering; also called Aβ monomers; Aβ monomer
T2 sequence (P05067 672-711 limits assumed): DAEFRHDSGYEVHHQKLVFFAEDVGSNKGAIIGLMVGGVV
Test: inhibition ELISA: antibody pre-incubated in solution with Aβ monomers, then transferred to Aβ coated plates
Protocol: as §1

binding result	Binder
binds	B2
binds	B3
binds	B4
binds	B5
binds	B6
binds	B7
binds	B8
binds	B9
binds	B10
binds	B11
binds	B12
binds	B13

Target: T1, Aβ1-42 protofibrils
Test: inhibition ELISA: antibody pre-incubated in solution with Aβ protofibrils, then transferred to Aβ coated plates
Protocol: as §1

binding result	Binder
binds	B2
binds	B3
binds	B4
binds	B5
binds	B6
binds	B7
binds	B8
binds	B9
binds	B10
binds	B11
binds	B12
binds	B13
